Reference: paper PMC7226629

How the values were obtained:
[1] = molecular target: CCR5 (human (endogenous in SNU387, PLC/PRF-5, SK-HEP-1)) (UniProt P51681)
[2] = molecular target: CCR5 (human (endogenous in SNU387, PLC/PRF-5, SK-HEP-1)) (UniProt P51681); remark: listed apart in the source

UniProt P51681, sequence (P51681 whole entry): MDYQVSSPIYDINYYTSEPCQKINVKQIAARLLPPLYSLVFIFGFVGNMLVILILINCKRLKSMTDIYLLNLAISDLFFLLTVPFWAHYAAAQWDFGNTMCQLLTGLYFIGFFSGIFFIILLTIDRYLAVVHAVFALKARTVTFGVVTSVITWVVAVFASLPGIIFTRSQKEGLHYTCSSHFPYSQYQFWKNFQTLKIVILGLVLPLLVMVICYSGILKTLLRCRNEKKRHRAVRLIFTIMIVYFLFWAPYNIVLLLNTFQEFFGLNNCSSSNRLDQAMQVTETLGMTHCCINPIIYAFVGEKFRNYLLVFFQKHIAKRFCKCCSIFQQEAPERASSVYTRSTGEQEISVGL

## CCL5 recombinant protein (from UniProt P13501 24-91) (ligand)
[1]
  Akt-1 mRNA (qRT-PCR) in PLC/PRF-5 cells treated with CCL5; diminished by maraviroc: 1.3 fold
  Akt-1 mRNA (qRT-PCR) in SK-HEP-1 cells treated with CCL5; diminished by maraviroc: 1.2 fold
  E-cadherin mRNA (qRT-PCR) in PLC/PRF-5 cells after exposure to maraviroc, compared to CCL5-treated cells: 0.3 fold
  E-cadherin mRNA (qRT-PCR) in SK-HEP-1 cells after exposure to maraviroc, compared to CCL5-treated cells: 0.8 fold
  beta-catenin mRNA (qRT-PCR) in PLC/PRF-5 cells treated with CCL5; diminished by maraviroc: 1.7 fold
  beta-catenin mRNA (qRT-PCR) in SK-HEP-1 cells treated with CCL5; diminished by maraviroc: 1.3 fold
[2]
  caspase-3 mRNA (qRT-PCR) in HCC cells: down-regulated with CCL5, higher with CCL5 plus maraviroc in two of the three cell lines: 0.5 fold
